The source of these data is US20220396632A1 (VERSEAU THERAPEUTICS, published 2022).

One may read the IC50 as the concentration that inhibits the measured activity by half.

Positions count from the first letter of the chain named. Non-standard residues stand in square brackets, D forms with d. No end group written: not given here. *: point of attachment. Biotin = O=C1N[C@H]2[C@H](CS[C@H]2CCCCC(=O)*)N1; sY = N[C@@H](Cc1ccc(OS(=O)(=O)O)cc1)C(=O)O

Sequences and labels used below:
B1: 10F01 (antibody, IgG4, V domains shown)
VH: EVQLVQSGGGLVQPGGSLRLSCAASGFTFSSYAMSWVRQAPGKGLEWVSALRGGDGGTYHADSVKGRFTISGDSSKNTLYLQMNSLRAEDTAVYYCARRMVGAAYAFDIWGQGTMVTVSS
VL: LPVLTQPHSVSESPGKTVTISCTRSSGSIADNFVQWYRQRPGSAPTTVIYEGDQRPSGVPGRFSGSIDSSSNSASLTISGLQTDDEADYYCQSFDSYNRRTHVVFGGGTKLTVL
B2: 5E12 (antibody, V domains shown)
VH: EIQLQQSGAELVRPGASVKLSCTASGFNIKDDYIHWVKQRPEQGLEWIGRIDPANGNTKSAPKFQDKATITADTSSNTAYLHLSSLTSEDTAVYYCSIRFAYWGQGTLVTVSA
VL: DVVMTQTPLSLSVSLGDQASISCRSSQSLVYRNGDTYLHWFLQKPGQSPKLLIYKVSNRFSGVPDRFSGSGSGTDFTLKISRVEAEDLGIYFCSQNTHVPYTFGGGTKLEIK
notes: Mouse hybridoma mAb; only variable domains given
B3: 20I15 (antibody, V domains shown)
VH: EVKLVESGGGLVQPGGSLSLSCAASGFTFTDYYMSWVRQPPGKALEWLGFIRNKANGYTTEYSASVKGRFTISRDNSQSILYLQMNALRAEDSATYYCARTYLRRGYFDVWGTGTTVTVSS
VL: DIVLTQSPASLAVSLGQRATISCRASKSVSTSGYSYMHWFQQKPGQPPKLLIYLASNLESGVPARFSGSGSGTDFTLNIHPVEEEDAATYYCQHSRELPLTFGAGTKLELK
notes: From mouse immunisation; only variable domains given; also called 20115
B4: 16L15 (antibody, V domains shown)
VH: DVKLVESGGGLVKLGGSLKLSCAASGFTFSSYYMSWVRQTPEKRLEWVATISNGGGSTYYPDSVKDRFTISRDNAKNTLYLQMSSLNSEDTAVYYCAKPLYYSNPWFAYWGQGTLVTVSA
VL: DVLLTQTPLSLPVSLGDQASISCRSSQSIVHSNGNTYLEWYLQKPGQSPKLLIYKVSNRFSGVPDRFSGSGSGTDFTLKISRVEAEDLGVYYCFQGSHVPRTFGGGTKLEIK
notes: From mouse immunisation; only variable domains given
B5: 9F9 (antibody, V domains shown)
VH: EVQLVETGGGLVQPKGSLKLSCAASGFTFNTNAMNWVRQAPGKGLEWVARIRSKSNNYATYYADSVKDRFTISRDDTQSMIYLQMNNLKTEDTGMYYCVRGGSYWYFDVWGAGTTVTVSS
VL: B4 VL with L4M, H31N, R101W
notes: Control anti-PSGL-1 mAb, recombinant; only variable domains given; also called 9F6
B6: 16E17 (antibody, V domains shown)
VH: QIQLVQSGPELKKPGETVKISCKASGYAFTTYGMSWVKQAPGKGLKWMGWINTYSGVPKYADDFKGRFAFSLETSASTAYLHINNLKNEDTATYFCGRHYYGSSYFDYWGQGTTLTVSS
VL: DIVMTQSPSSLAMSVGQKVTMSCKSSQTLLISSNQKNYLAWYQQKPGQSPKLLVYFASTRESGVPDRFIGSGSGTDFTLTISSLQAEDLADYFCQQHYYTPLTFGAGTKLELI
notes: as for B4
B7: 19L04 (antibody, IgG4, V domains shown)
VH: B6 VH with A28T, K59T, H82Q, N88I, G97A, S104H
VL: DIMMTQSPSSLAMSVGQKVTLRCKSSQSLLNSSNQKNYLAWYQQKPGQSPKLLVYFASTRESGVPVRFIGSGSGTDFTLTISSMQAEDLADYFCQQHYFSPLTFGAGTKLELK
notes: as for B4
B8: 19N05 (antibody, V domains shown)
VH: B6 VH with A28T, K59T, Y60F, H82Q, Y94F, G97A, H99N, S103N, S104H
VL: DVQITQSPSYLAASPGETISINCRASNNINKYLAWYQEKPGKTNKLLIYSGSTLQSGIPSRFSGSGSGTDFTLTISSLEPEDFAMYHCQQHNYYPLTFGAGTKLELK
notes: as for B4
B9: 19I01 (antibody, V domains shown)
VH: EVQLVESGGGLVKPGGSRKLSCAASGFTFSDYGMHWVRQAPEKGLEWVAYISSGSSTIYYADTVKGRFTISRDNAKNTLFLQMTSLRSEDTAMYYCARGVDGYWGQGTTLTVSS
VL: DVVMTQTPLSLPVSLGDQASISCRSSQSLVHSNGNTYLHWYLQKPGQSPKFLIYKVSNRFSGVPDRFSGSGSGTDFTLKISRVEAEDLGVYFCSQTTHVPLTFGAGTKLELK
notes: From mouse immunisation; only variable domains given; also called 19101
B10: 18F02 (antibody, V domains shown)
VH: QVQLQQPGAELVKPGASVKLSCKASGYTFTSYWMHWVKQRPGQGLEWIGMIHPNSGRTNYNEKFKSKATLTVDKSSSTAYMQLSSLTSEDSAVYYCARSDYWGQGTTLTVSS
VL: DIVMTQAAFSNPVTLGTSASISCRSSKSLLHSDGITYLYWFLQRPGQSPQLLIYRMSNLASGVPDRFSGSGSGTDFTLRISRVEAEDVGVYYCAQMLEFPRTFGGGTKLEIK
notes: as for B4
B11: 2E12 (antibody, V domains shown)
VH: QVQLQQSGAELARPGASVKLSCKASGYTFTNYGLNWVKQRTGQGLEWIGEIYPRSGNTYYNEKFKGKATLTADKSSSTAYMQLSSLTSEDSAVYFCATEGAYWGQGTLVTVSA
VL: DIVMTQTPLTLSVTIGQPASISCKSSQSLLHGNGKTYLNWLLQRPGQSPKLLIYLVSKLESGIPDRFSGSGSGTDFTLEISRVEAEDLGIYYCLQSTHFPRTFGGGTKLEIK
notes: as for B2
B12: 03D07 (antibody, IgG4, V domains shown)
VH: EVKLLESGGGLVQPGGSLRLSCAASGFTFSSYALSWVRQAPGKGLEWVSAISGSGGNTYYADSVKGRFTISRDNSKNTLYLQMNSLRAEDTAVYYCAKVVGATNYWGQGTLVTVSS
VL: DIVMTQTPLSLPVTLGQPASISCRSSQSLVYSDGHTYLSWFHQRPGQSPRRLIYKVSIRDSGVPDRFSGSGSGTDFTLKISRVEAEDVGVYYCMQRLQIPLTFGGGTKVEIK
B13: 18K07 (antibody, V domains shown)
VH: QIQLVQSGPELKKPGETVKISCEASGYTFTTYGMNWVKQAPGKGLKWMGWINTYSGVPTYADDFQGRFAFSVETSATTAYLQINNLKNEDAATYFCARSDDTYYGFAYWGQGTLVTVSA
VL: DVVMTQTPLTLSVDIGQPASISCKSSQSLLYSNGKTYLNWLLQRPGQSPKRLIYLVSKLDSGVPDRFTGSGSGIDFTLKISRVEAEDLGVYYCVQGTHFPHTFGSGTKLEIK
notes: as for B4

One test addresses T1, Recombinant human PSGL-1(ECD)-hFc1 (R&D Systems, Cat. 3345-PS) (human, UniProt Q14242 42-305).
T1 construct: Bought; Gln42-Val295 counted on AAC50061; also called PSGL-1-Fc; PSGL-1-hFc1 chimera; not shown: human IgG1 Fc, Pro100-Lys330
T1 sequence: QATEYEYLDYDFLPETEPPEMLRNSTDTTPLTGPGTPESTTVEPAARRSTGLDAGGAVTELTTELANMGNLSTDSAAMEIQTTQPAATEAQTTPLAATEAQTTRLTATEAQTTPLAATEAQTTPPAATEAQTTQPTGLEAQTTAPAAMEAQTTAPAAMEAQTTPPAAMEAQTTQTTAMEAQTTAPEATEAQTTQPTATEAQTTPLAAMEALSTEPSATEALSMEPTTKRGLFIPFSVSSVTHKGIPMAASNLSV
Description: blocking ELISA vs L-selectin-Fc. The procedure, abridged:
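IC50 per antibody was derived from sigmoidal fitted titration curves. Plates carried PSGL-1-Fc coated at 2.5 ug/mL (PBS, pH 7.4, 4° C overnight). Serially diluted antibodies in duplicate were incubated 45 min at 37° C, and signal was developed with HRP-conjugated streptavidin.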
In general terms: ELISA stands for enzyme-linked immunosorbent assay.
For B1, the “% max Block” value was determined as 100% and the concentration for half-maximal inhibition (IC50) was 6 nM.

In the case of B2, the “% max Block” value is 0%.

Turning to B3, the “% max Block” value turned out to be 65% and the half-maximal inhibitory concentration (IC50) stood at 20 nM.

On to B4, for which the “% max Block” value is 100% and the IC50 stood at 9 nM.

On to B5, for which the “% max Block” value amounted to 100% and the concentration for half-maximal inhibition (IC50) was 10 nM.

Consider B6, for which the “% max Block” value was 0%.

In the case of B7, the “% max Block” value amounted to 0%.

For the molecule B8, the “% max Block” value is 0%.

For B9, the “% max Block” value stood at 100% and the concentration for half-maximal inhibition (IC50) was found to be 5 nM.

With B10, the “% max Block” value was 100% and the IC50 turned out to be 10 nM.

Turning to B11, the “% max Block” value was 0%.

For B12, the “% max Block” value was 100% and the half-inhibitory concentration (IC50) stood at 6 nM.

Regarding B13, the “% max Block” value was 0%.

The target of a further test is T1, Recombinant human PSGL-1(ECD)-hFc1 (R&D …). Description: blocking ELISA vs VISTA-Fc, pH 6.0.
Turning to B1, the “% max Block” value was found to be 100% and the IC50 turned out to be 8 nM.

With B2, the “% max Block” value was found to be 0%.

In the case of B3, the “% max Block” value amounted to 85% and the IC50 is 30 nM.

For the molecule B4, the “% max Block” value is 100% and the half-maximal inhibitory concentration (IC50) was 6 nM.

Regarding B5, the “% max Block” value was found to be 100% and the half-maximal inhibitory concentration (IC50) is 8 nM.

Consider B6, for which the “% max Block” value came to 0%.

Turning to B7, the “% max Block” value was 0%.

On to B8, for which the “% max Block” value stood at 0%.

B9: the “% max Block” value amounted to 100% and the IC50 was 8 nM.

In the case of B10, the “% max Block” value was 100% and the IC50 stood at 10 nM.

B11: the “% max Block” value was 0%.

Consider B12, for which the “% max Block” value was found to be 100% and the half-inhibitory concentration (IC50) was determined as 8 nM.

For B13, the “% max Block” value is 0%.

The target of another test is T2, Sulfotyr fibrinogen γ peptide (not fully specified; Y8 and Y12 sulfated (SO3); C-terminal biotin).
T2 construct: also called Fibrinogen gamma peptide; human sulfotyrosinylated fibrinogen peptide
T2 peptide: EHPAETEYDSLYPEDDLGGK
Description: ELISA, 50 nM mAb. The protocol:
(§1) Recombinant PSGL-1-hFc1 chimera protein consisting of PSGL-1's extracellular domain (ECD) served as a positive control. […] Primary antibody was added (25 ul per well) in duplicate at 50 nM in assay buffer (blocking buffer containing 0.05% Tween®20) into test and control (just blocked) wells and the plate incubated for 45 min at 37° C.
On to B1, for which the “binding normalized to PSGL-1” value came out at 0.06.

Regarding B2, the “binding normalized to PSGL-1” value is 0.03.

For B3, the “binding normalized to PSGL-1” value is 0.37.

For the molecule B4, the “binding normalized to PSGL-1” value stood at 0.11.

Regarding B9, the “binding normalized to PSGL-1” value is -0.01 and the binding result is “no binding (tested: 50 nM)”.

B10: the “binding normalized to PSGL-1” value worked out at 0.21.

Turning to B11, the “binding normalized to PSGL-1” value was 0.76.

As to B12, the “binding normalized to PSGL-1” value worked out at 0.49.

Another test has as its target T3, Sulfotyrosine D6 biotin peptide (human).
T3 construct: also called D6 peptide
T3 peptide: ENSSFY[sY][sY]D[sY]LDEVAFGGK(Biotin)
Description: ELISA, 50 nM mAb. The protocol: as §1
For B1, the “binding normalized to PSGL-1” value was determined as 0.04.

B2: the “binding normalized to PSGL-1” value is 0.03.

For B3, the “binding normalized to PSGL-1” value was 0.35.

B4: the “binding normalized to PSGL-1” value was 0.06.

On to B9, for which the “binding normalized to PSGL-1” value is 0.02 and the binding result is reported as “no binding (tested: 50 nM)”.

For B10, the “binding normalized to PSGL-1” value was determined as 0.09.

B11: the “binding normalized to PSGL-1” value came out at 0.06.

As to B12, the “binding normalized to PSGL-1” value stood at 0.28.

In a further test the target is T4, Cynomolgus PSGL-1(ECD)-hFc1 (cynomolgus macaque).
T4 construct: also called Cyno PSGL1-Fc; Cyno PSGL-1(ECD)-Fc
T4 sequence (chain, as listed by the source limits assumed): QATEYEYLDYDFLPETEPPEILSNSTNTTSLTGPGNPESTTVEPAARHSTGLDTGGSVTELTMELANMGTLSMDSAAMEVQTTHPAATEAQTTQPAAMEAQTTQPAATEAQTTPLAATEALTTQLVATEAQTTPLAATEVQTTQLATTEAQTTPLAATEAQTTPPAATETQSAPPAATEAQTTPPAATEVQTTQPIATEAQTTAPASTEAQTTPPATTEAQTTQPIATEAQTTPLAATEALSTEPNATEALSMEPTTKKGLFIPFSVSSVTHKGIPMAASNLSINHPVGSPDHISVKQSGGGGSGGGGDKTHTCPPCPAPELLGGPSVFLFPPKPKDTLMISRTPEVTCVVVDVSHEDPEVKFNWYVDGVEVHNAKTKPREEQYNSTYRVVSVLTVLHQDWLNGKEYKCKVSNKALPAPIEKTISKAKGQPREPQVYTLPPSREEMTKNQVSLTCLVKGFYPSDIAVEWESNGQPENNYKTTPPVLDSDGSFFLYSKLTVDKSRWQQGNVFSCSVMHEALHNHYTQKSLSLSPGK
As to the kind of experiment: ELISA, 20 nM mAb on plate cyno PSGL-1(ECD)-Fc. The essentials: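 Plates coated o/n 4° C., 3 ug/mL recombinant cyno PSGL-1(ECD), PBS pH 7.4. mAb 20 nM or 0.003-200 nM titration in blocking buffer + 0.05% tween 20, 45 min 37° C. HRP/TMB, A450; mean of duplicates minus background.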
As for B1, the A450nm came to 1.22 A450 nm.

As to B4, the A450nm amounted to 1.22 A450 nm.

B10 gave an A450nm of 2 A450 nm.

B12 yielded an A450nm of 0.74 A450 nm.
